B1: AMIGO2 (protein, UniProt Q86SJ2 40-522, looked up)
Amphoterin-induced protein 2: VCPTACICATDIVSCTNKNLSKVPGNLFRLIKRLDLSYNRIGLLDSEWIPVSFAKLNTLILRHNNITSISTGSFSTTPNLKCLDLSSNKLKTVKNAVFQELKVLEVLLLYNNHISYLDPSAFGGLSQLQKLYLSGNFLTQFPMDLYVGRFKLAELMFLDVSYNRIPSMPMHHINLVPGKQLRGIYLHGNPFVCDCSLYSLLVFWYRRHFSSVMDFKNDYTCRLWSDSRHSRQVLLLQDSFMNCSDSIINGSFRALGFIHEAQVGERLMVHCDSKTGNANTDFIWVGPDNRLLEPDKEMENFYVFHNGSLVIESPRFEDAGVYSCIAMNKQRLLNETVDVTINVSNFTVSRSHAHEAFNTAFTTLAACVASIVLVLLYLYLTPCPCKCKTKRQKNMLHQSNAHSSILSPGPASDASADERKAGAGKRVVFLEPLKDTAAGQNGKVRLFPSEAVIAEGILKSTRGKSDSDSVNSVFSDTPFVAST
B2: ZBTB17 (protein, UniProt Q13105 1-803, looked up)
Zinc finger and BTB …: MDFPQHSQHVLEQLNQQRQLGLLCDCTFVVDGVHFKAHKAVLAACSEYFKMLFVDQKDVVHLDISNAAGLGQVLEFMYTAKLSLSPENVDDVLAVATFLQMQDIITACHALKSLAEPATSPGGNAEALATEGGDKRAKEEKVATSTLSRLEQAGRSTPIGPSRDLKEERGGQAQSAASGAEQTEKADAPREPPPVELKPDPTSGMAAAEAEAALSESSEQEMEVEPARKGEEEQKEQEEQEEEGAGPAEVKEEGSQLENGEAPEENENEESAGTDSGQELGSEARGLRSGTYGDRTESKAYGSVIHKCEDCGKEFTHTGNFKRHIRIHTGEKPFSCRECSKAFSDPAACKAHEKTHSPLKPYGCEECGKSYRLISLLNLHKKRHSGEARYRCEDCGKLFTTSGNLKRHQLVHSGEKPYQCDYCGRSFSDPTSKMRHLETHDTDKEHKCPHCDKKFNQVGNLKAHLKIHIADGPLKCRECGKQFTTSGNLKRHLRIHSGEKPYVCIHCQRQFADPGALQRHVRIHTGEKPCQCVMCGKAFTQASSLIAHVRQHTGEKPYVCERCGKRFVQSSQLANHIRHHDNIRPHKCSVCSKAFVNVGDLSKHIIIHTGEKPYLCDKCGRGFNRVDNLRSHVKTVHQGKAGIKILEPEEGSEVSVVTVDDMVTLATEALAATAVTQLTVVPVGAAVTADETEVLKAEISKAVKQVQEEDPNTHILYACDSCGDKFLDANSLAQHVRIHTAQALVMFQTDADFYQQYGPGGTWPAGQVLQAGELVFRPRDGAEGQPALAETSPTAPECPPPAE
B3: FES (protein, UniProt P07332 1-822, looked up)
Tyrosine-protein kinase …: MGFSSELCSPQGHGVLQQMQEAELRLLEGMRKWMAQRVKSDREYAGLLHHMSLQDSGGQSRAISPDSPISQSWAEITSQTEGLSRLLRQHAEDLNSGPLSKLSLLIRERQQLRKTYSEQWQQLQQELTKTHSQDIEKLKSQYRALARDSAQAKRKYQEASKDKDRDKAKDKYVRSLWKLFAHHNRYVLGVRAAQLHHQHHHQLLLPGLLRSLQDLHEEMACILKEILQEYLEISSLVQDEVVAIHREMAAAAARIQPEAEYQGFLRQYGSAPDVPPCVTFDESLLEEGEPLEPGELQLNELTVESVQHTLTSVTDELAVATEMVFRRQEMVTQLQQELRNEEENTHPRERVQLLGKRQVLQEALQGLQVALCSQAKLQAQQELLQTKLEHLGPGEPPPVLLLQDDRHSTSSSEQEREGGRTPTLEILKSHISGIFRPKFSLPPPLQLIPEVQKPLHEQLWYHGAIPRAEVAELLVHSGDFLVRESQGKQEYVLSVLWDGLPRHFIIQSLDNLYRLEGEGFPSIPLLIDHLLSTQQPLTKKSGVVLHRAVPKDKWVLNHEDLVLGEQIGRGNFGEVFSGRLRADNTLVAVKSCRETLPPDLKAKFLQEARILKQYSHPNIVRLIGVCTQKQPIYIVMELVQGGDFLTFLRTEGARLRVKTLLQMVGDAAAGMEYLESKCCIHRDLAARNCLVTEKNVLKISDFGMSREEADGVYAASGGLRQVPVKWTAPEALNYGRYSSESDVWSFGILLWETFSLGASPYPNLSNQQTREFVEKGGRLPCPELCPDAVFRLMEQCWAYEPGQRPSFSTIYQELQSIRKRHR
B4: TRANCE (protein, UniProt O14788 140-317, looked up)
Tumor necrosis factor ligand …: IRAEKAMVDGSWLDLAKRSKLEAQPFAHLTINATDIPSGSHKVSLSSWYHDRGWAKISNMTFSNGKLIVNQDGFYYLYANICFRHHETSGDLATEYLQLMVYVTKTSIKIPSSHTLMKGGSTKYWSGNSEFHFYSINVGGFFKLRSGEEISIEVSNPSLLDPDQDATYFGAFKVRDID
B5: ARG1 (protein, UniProt P05089 1-322, looked up)
Arginase-1: MSAKSRTIGIIGAPFSKGQPRGGVEEGPTVLRKAGLLEKLKEQECDVKDYGDLPFADIPNDSPFQIVKNPRSVGKASEQLAGKVAEVKKNGRISLVLGGDHSLAIGSISGHARVHPDLGVIWVDAHTDINTPLTTTSGNLHGQPVSFLLKELKGKIPDVPGFSWVTPCISAKDIVYIGLRDVDPGEHYILKTLGIKYFSMTEVDRLGIGKVMEETLSYLLGRKKRPIHLSFDVDGLDPSFTPATGTPVVGGLTYREGLYITEEIYKTGLLSGLDIMEVNPSLGKTPEEVTRTVNTAVAITLACFGLAREGNHKPIDYLNPPK
B6: CD79B (protein, UniProt P40259 29-229, looked up)
B-cell antigen receptor …: ARSEDRYRNPKGSACSRIWQSPRFIARKRGFTVKMHCYMNSASGNVSWLWKQEMDENPQQLKLEKGRMEESQNESLATLTIQGIRFEDNGIYFCQQKCNNTSEVYQGCGTELRVMGFSTLAQLKQRNTLKDGIIMIQTLLIILFIIVPIFLLLDKDDSKAGMEEDHTYEGLDIDQTATYEDIVTLRTGEVKWSVGEHPGQE
B7: NADK (protein, UniProt O95544 1-446, looked up)
NAD kinase: MEMEQEKMTMNKELSPDAAAYCCSACHGDETWSYNHPIRGRAKSRSLSASPALGSTKEFRRTRSLHGPCPVTTFGPKACVLQNPQTIMHIQDPASQRLTWNKSPKSVLVIKKMRDASLLQPFKELCTHLMEENMIVYVEKKVLEDPAIASDESFGAVKKKFCTFREDYDDISNQIDFIICLGGDGTLLYASSLFQGSVPPVMAFHLGSLGFLTPFSFENFQSQVTQVIEGNAAVVLRSRLKVRVVKELRGKKTAVHNGLGENGSQAAGLDMDVGKQAMQYQVLNEVVIDRGPSSYLSNVDVYLDGHLITTVQGDGVIVSTPTGSTAYAAAAGASMIHPNVPAIMITPICPHSLSFRPIVVPAGVELKIMLSPEARNTAWVSFDGRKRQEIRHGDSISITTSCYPLPSICVRDPVSDWFESLAQCLHWNVRKKQAHFEEEEEEEEEG
B8: BANK1 (protein, UniProt Q8NDB2 1-785, looked up)
B-cell scaffold protein with …: MLPAAPGKGLGSPDPAPCGPAPPGNTKDIIMIYEEDAEEWALYLTEVFLHVVKREAILLYRLENFSFRHLELLNLTSYKCKLLILSNSLLRDLTPKKCQFLEKILHSPKSVVTLLCGVKSSDQLYELLNISQSRWEISTEQEPEDYISVIQSIIFKDSEDYFEVNIPTDLRAKHSGEISERKEIEELSEASRNTIPLAVVLPTEIPCENPGEIFIILRDEVIGDTVEVEFTSSNKRIRTRPALWNKKVWCMKALEFPAGSVHVNVYCDGIVKATTKIKYYPTAKAKECLFRMADSGESLCQNSIEELDGVLTSIFKHEIPYYEFQSLQTEICSQNKYTHFKELPTLLHCAAKFGLKNLAIHLLQCSGATWASKMKNMEGSDPAHIAERHGHKELKKIFEDFSIQEIDINNEQENDYEEDIASFSTYIPSTQNPAFHHESRKTYGQSADGAEANEMEGEGKQNGSGMETKHSPLEVGSESSEDQYDDLYVFIPGADPENNSQEPLMSSRPPLPPPRPVANAFQLERPHFTLPGTMVEGQMERSQNWGHPGVRQETGDEPKGEKEKKEEEKEQEEEEDPYTFAEIDDSEYDMILANLSIKKKTGSRSFIINRPPAPTPRPTSIPPKEETTPYIAQVFQQKTARRQSDDDKFCGLPKKQDRARIESPAFSTLRGCLTDGQEELILLQEKVKNGKMSMDEALEKFKHWQMGKSGLEMIQQEKLRQLRDCIIGKRPEEENVYNKLTIVHHPGGKETAHNENKFYNVHFSNKLPARPQVEKEFGFCCKKDH
B9: PLIN1 (protein, UniProt O60240 1-522, looked up)
Perilipin-1: MAVNKGLTLLDGDLPEQENVLQRVLQLPVVSGTCECFQKTYTSTKEAHPLVASVCNAYEKGVQSASSLAAWSMEPVVRRLSTQFTAANELACRGLDHLEEKIPALQYPPEKIASELKDTISTRLRSARNSISVPIASTSDKVLGAALAGCELAWGVARDTAEFAANTRAGRLASGGADLALGSIEKVVEYLLPPDKEESAPAPGHQQAQKSPKAKPSLLSRVGALTNTLSRYTVQTMARALEQGHTVAMWIPGVVPLSSLAQWGASVAMQAVSRRRSEVRVPWLHSLAAAQEEDHEDQTDTEGEDTEEEEELETEENKFSEVAALPGPRGLLGGVAHTLQKTLQTTISAVTWAPAAVLGMAGRVLHLTPAPAVSSTKGRAMSLSDALKGVTDNVVDTVVHYVPLPRLSLMEPESEFRDIDNPPAEVERREAERRASGAPSAGPEPAPRLAQPRRSLRSAQSPGAPPGPGLEDEVATPAAPRPGFPAVPREKPKRRVSDSFFRPSVMEPILGRTHYSQLRKKS
B10: Flt3L (protein, UniProt P49771 27-235, looked up)
Fms-related tyrosine kinase 3 …: TQDCSFQHSPISSDFAVKIRELSDYLLQDYPVTVASNLQDEELCGGLWRLVLAQRWMERLKTVAGSKMQGLLERVNTEIHFVTKCAFQPPPSCLRFVQTNISRLLQETSEQLVALKPWITRQNFSRCLELQCQPDSSTLPPPWSPRPLEATAPTAPQPPLLLLLLLPVGLLLLAAAWCLHWQRTRRRTPRPGEQVPPVPSPQDLLLVEH

These molecules were tested on plasma proteins (assay: Plasma proteins modulated between baseline and day 28 in responders (CR, VGPR, PR; n = 19), Example 6 (Table 13)). Conditions: plasma protein (OLINK NPX); responders (CR, VGPR, PR; n = 19); itacitinib 200 mg or 300 mg QD with corticosteroids; day 28 vs baseline.
Format: in vivo, human
Procedure, shortened: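 Plasma at baseline/screening and day 28 profiled for >1000 proteins by OLINK proximity extension assay, reported as NPX (log2). Steroid-naive and steroid-refractory patients pooled. Paired and unpaired t tests, ANOVA and Pearson correlation applied; significance at P<0.05.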

| Molecule | Fold Change, Decreased Expression from Baseline to Day 28 | Fold Change, Increased Expression from Baseline to Day 28 |
| --- | --- | --- |
| B1 | −1.1962 |  |
| B2 | −1.2333 |  |
| B3 | −1.4934 |  |
| B4 | −1.4034 |  |
| B5 | −1.3036 |  |
| B6 | −1.2372 |  |
| B7 | −1.3493 |  |
| B8 | −2.0084 |  |
| B9 |  | 2.4338 |
| B10 |  | 2.3423 |
